Laboratory results published in patent US20200230057A1, “Pharmaceutical Compositions, Methods for Preparation using Lipid Vesicle Particles of Defined Size, and Uses Thereof” (IMMUNOVACCINE TECHNOLOGIES INC., priority 2017, published 2020).
Several values for one entry are separate records, joined by “and”; a condition that tells them apart may be missing. Equal values may be shown once. Read-outs that look alike come from different tables or passages of the source.

How the values were obtained:
[1] = HPLC peptide recovery before and after freeze-drying
Method: The composition prepared as described in Example 4, containing 14 neoantigens and the A16L T-helper peptide, was subjected to HPLC analysis to evaluate the peptide stability before and after freeze-drying.
Experimental Conditions: • IPQC Solutions: Dilute the IPQC solutions with Methanol and then with Mobile Phase A, e.g. as follows: • 100 mg In-Process Testing Solution • +450 μL Methanol, mix • +450 μL Mobile Phase A, mix • Mix by vortexing. Samples containing lipids will be slightly hazy. Dilution factor=10×. • Lyophilisates (for Release and Stability Testing): Solubilize the lyophilisate with Ultrapure lab water. Add 3-4 glass beads and vortex vigorously for 1 minute to assure complete homogenization. Dilute the solution with Methanol and subsequently with Mobile Phase A, e.g. as follows: • 100 mg In-Process Testing Solution • +450 μL Methanol, mix • +450 μL Mobile Phase A, mix • Mix by vortexing. The sample preparations will be slightly hazy. Dilution factor=20×.
The dried preparations were solubilized in water for HPLC analysis. T=0 is the day in which the samples were removed from the freeze-dryer. T=1M and T=3M are 1 month and 3 months after T=0, respectively, with the dried preparation having been stored at −20° C.

C57BL/6NCrl mice = assay: IFN-gamma ELISPOT of splenocytes eight days after single vaccination; format: in vivo; conditions: oil-based composition with 14 neoantigens, single administration, response to the named neoantigen
[2] = After freeze dry T = 1M, stored at −20° C.
[3] = After freeze dry T = 3M, stored at −20° C.

Sequence | Amount from non-validated HPLC assay ([1]; After freeze dry T = 0) [mg/mL] | Amount from non-validated HPLC assay [1, 2] [mg/mL] | Amount from non-validated HPLC assay [1, 3] [mg/mL] | Amount from non-validated HPLC assay ([1]; Before freeze dry) [mg/mL] | Improvement of immune response over comparative aqueous composition (C57BL/6NCrl mice) | Amount from non-validated HPLC assay [1]
NIEGIDKLTQLKKPFLVNNKINKIENI (Mut28) [Mut 28] | 0.50 | 0.50 | 0.51 | 0.53 | – | –
ECRITSNFVIPSEYWVEEKEEKQKLIQ (Mut45) [Mut 45] | 0.44 | 0.42 | 0.46 | 0.47 | – | –
STANYNTSHLNNDVWQIFENPVDWKEK (Mut25) [Mut 25] | 0.54 | 0.50 | 0.56 | 0.56 | about 5 fold | –
CGTAFFINFIAIYHHASRAIPFGTMVA (Mut36) [Mut 36] | 0.19 | 0.25 | 0.31 | 0.47 | – | –
PKPDFSQLQRNILPSNPRVTRFHINWD (Mut22) [Mut 22] | 0.51 | 0.47 | 0.54 | 0.54 | – | –
SHCHWNDLAVIPAGVVHNWDFEPRKVS (Mut48) [Mut 48] | 0.38 | 0.37 | 0.41 | 0.47 | – | –
EFKHIKAFDRTFANNPGPMVVFATPGM (Mut44) [Mut 44] | 0.47 | 0.44 | 0.50 | 0.51 | about 3 fold | –
SFACLRQPSQGPTVGVKGGAAGGGYAQ (Mut29B) [Mut 29b] | 0.48 | 0.44 | 0.48 | 0.56 | – | –
PSKPSFQEFVDWENVSPELNSTDQPFL (Mut30) [Mut 30] | 0.51 | 0.51 | 0.56 | 0.53 | – | –
VVDRNPQFLDPVLAYLMKGLCEKPLAS (Mut17) [Mut 17] | 0.27 | 0.23 | 0.26 | 0.51 | – | –
FRRKAFLHWYTGEAMDEMEFTEAESNM [Mut 20] | – | – | – | – | – | 0.41 mg/mL and 0.47 mg/mL and 0.54 mg/mL and 0.42 mg/mL
TAVITPPTTTTKKARVSTPKPATPSTD (Mut24) [Mut 24] | 0.44 | 0.38 | 0.37 | 0.56 | – | –
IPSGTTILNCFHDVLSGKLSGGSPGVP (Mut29A) [Mut 29a] | 0.38 | 0.34 | 0.35 | 0.54 | – | –
GFSQPLRRLVLHVVSAAQAERLARAEE (Mut50) [Mut 50] | 0.42 | 0.44 | 0.46 | 0.42 | – | –
